Reference: patent CN106928350A (TIANJIN INST IND BIOTECHNOLOGY CAS; SUZHOU GENEWIZ …, dated 2017)

Target: T1, HA of H3 (A/Aichi/2/1968)/PR8 H3N1 (PR8-RS) (Influenza A virus A/Aichi/2/1968 (H3), UniProt P03437 17-566)
T1 construct: whole, on cells; also called A/Aichi/2/1968 H3N1-RG
Assay: immunofluorescence on virus-infected MDCK cells, antibody 40μg/mL

B1: AF4H1K1 (antibody, V domains shown)
VH: QVQLVESGGGVVQPGTSLRLSCEASGFTSSAYAMHWVRQAPGKGLEWVAVITFDGGYQYYADSVKGRFTISRDISRNTLHLHMNSLRAEDTAVYYCARDPLTKLLPFDWVSGGYFDYWGQGTLVTVSS
VL: not shown
notes: also called AF4H1K1 IgG; AF4H1K1IgG
binding result: binds
